For the test, the target named is SARS-CoV-2 spike receptor-binding domain (RBD), wild type (SARS-CoV-2, Wuhan-Hu-1 (wild type), UniProt P0DTC2). The test can be described thus: cryo-EM structure.

B1: Nb17 (VHH)
VHH: HVQLVESGGGLVQAGGSLRLSCAASGSIFSSNAMSWYRQAPGKQRELVASITSGGNADYADSVKGRFTISRDKNTVYPEMSSLKPADTAVYYCHAVGQEASAYAPRAYWGQGTQVTVSS
For B1, the binding result is recorded as “binds”.

B2: Nb36 (VHH)
VHH: VQLVESGGGLVQAGGSLTLTCAASGRTFSSETMDMGWFRQAPGKEREFVAADSWNDGSTYYADSVKGRFTISRDSAKNTLYLQMNSLKPEDTAVYYCAAETYSIYEKDDSWGYWGQGTQVTVS
B2: the binding result was “binds”.

B3: Nb21 (VHH)
VHH: QVQLVESGGGLVQAGGSLRLSCAVSGLGAHRVGWFRRAPGKEREFVAAIGANGGNTNYLDSVKGRFTISRDNAKNTIYLQMNSLKPQDTAVYYCAARDIETAEYTYWGQGTQVTVSS
For B3, the binding result is “binds”.

For the origin of these results see PMC7987009 (bioRxiv, 2021).
